Patent US20230242677A1

Target: Protein A (Staphylococcus aureus) (UniProt P38507)
Assay: Protein A interaction assay (POROS A column HPLC), acidic elution

retention time: 31.3 min
Substance: hu IgG (positive control) (antibody)
